{"source": "patent US10759863B2", "about": "“Modulation of γδ T cells” (Sanford Burnham Prebys Medical Discovery Institute, priority 2013, dated 2020)", "molecules": {"B1": {"name": "IL-7: cytokine IL-7 (R&D Systems), added at 10 ng/ml (protein, UniProt P13232 26-177, looked up)", "Interleukin-7": "DCDIEGKDGKQYESVLMVSIDQLLDSMKEIGSNCLNNEFNFFKRHICDANKEGMFLFRAARKLRQFLKMNSTGDFDLHLLKVSEGTTILLNCTGQVKGRKPAALGEAQPTKSLEENKSLKEQKKLNDLCFLKRLLQEIKTCWNKILMGTKEH"}, "B2": {"name": "IL-23: cytokine, potent γδT cell activator (protein, UniProt Q9NPF7 20-189; P29460 23-328, looked up)", "Interleukin-23 subunit alpha": "RAVPGGSSPAWTQCQQLSQKLCTLAWSAHPLVGHMDLREEGDEETTNDVPHIQCGDGCDPQGLRDNSQFCLQRIHQGLIFYEKLLGSDIFTGEPSLLPDSPVGQLHASLLGLSQLLQPEGHHWETQQIPSLSPSQPWQRLLLRFKILRSLQAFVAVAARVFAHGAATLSP", "Interleukin-12 subunit beta": "IWELKKDVYVVELDWYPDAPGEMVVLTCDTPEEDGITWTLDQSSEVLGSGKTLTIQVKEFGDAGQYTCHKGGEVLSHSLLLLHKKEDGIWSTDILKDQKEPKNKTFLRCEAKNYSGRFTCWWLTTISTDLTFSVKSSRGSSDPQGVTCGAATLSAERVRGDNKEYEYSVECQEDSACPAAEESLPIEVMVDAVHKLKYENYTSSFFIRDIIKPDPPKNLQLKPLKNSRQVEVSWEYPDTWSTPHSYFSLTFCVQVQGKSKREKKDRVFTDKTSATVICRKNASISVRAQDRYYSSSWSEWASVPCS"}}, "key": {"[1]": {"test_system": "RORγt", "assay": "Digoxin treatment of RORγt-expressing Jurkat cells, BTLA expression", "type": "cell-based", "conditions": "digoxin vs DMSO, 24-48 hrs, FIG. 11B", "procedure": "(§1) Surface staining was performed on ice for 20-30 min. Intracellular staining was performed using the BD Cytofix/Cytoperm™ Kit according the manufacturer's instructions (BD Biosciences). Stained cells were acquired using a BD LSRFortessa™ equipped with 4 lasers (blue at 488 nm, yellow-green at 561 nm, red at 640 nm, violet at 405 nm). Antibodies in SI.\nFor qRT-PCR analysis, total RNA was prepared from FACS sorted populations using the Qiagen RNeasy Mini kit according to the manufacturer's instructions (Qiagen, Valencia, Calif.). RNA was reverse transcribed into cDNA using the iScript™ cDNA synthesis kit (Bio-Rad Laboratories, Hercules, Calif.) according to the manufacturer's instructions. Target genes were detected using intron-spanning primers (Invitrogen) and relative expression was measured using Power® SYBR Master mix (Life Technologies, Grand Island, N.Y.). Reactions were carried out in clear 384 plates using an ABI® 7900 Real-Time PCR System (Life Technologies). We calculated relative expression as follows: 2^−Dct, where Ct=cycle number, DCt=Ct (target gene)−Ct (house-keeping gene). A value of 1 means equal expression of target and house-keeping gene (L32). Oligo sequences (5′-3′):\nJurkat cells were cultured at 10^5/100 μl in U-bottom wells for 24-48 hrs with either DMSO or the indicated concentrations of digoxin (Sigma-Aldrich). […]"}, "[2]": {"test_system": "BTLA expression in γδT cells and ILCs", "assay": "Cytokine-induced BTLA expression in cultured iLN γδT cells and PP ILCs", "type": "cell-based, mice", "conditions": "for BTLA induction in RORγt+ γδT cells after culture with activating cytokines: iLN lymphocytes of Rorc(t)gfp/+ mice enriched for CD27− γδT cells, FIG. 17A", "procedure": "as §1\n(§2) For IL-7 induced expansion iLN lymphocytes were cultured in RF10 media (RPMI+10% FBS, p/s, L-Glutamine) at 10^7/ml in 12-well plates for four days. For IL-7 induced BTLA expression iLN or PP lymphocytes were enriched for ILCs and CD27^− γδT cells and cultured in RF10 media in 24-well plates containing feeder adherent cells for two days. Following enrichment, cells from 3 animals were cultured in 1 ml in a single well. IL-7 (R&D Systems, Minneapolis, Minn.) was added at 10 ng/ml. For IL-17 and TNF production whole lymph node cells were cultured with or without 10 ng/ml IL-7 for 18 hours and then re-stimulated with PMA (50 ng/ml), ionomycin (750 ng/ml) and Golgi Stop™ (BD Biosciences) for 3.5 hours. TH17 differentiation was performed by isolating CD4^+ T cells from spleens and culturing in anti-CD3 (5 μg/ml) coated 24-well plates at 1.35×10^6/ml with anti-CD28 (2 μg/ml), IL-6 (20 ng/ml) and TGFβ1 (2 ng/ml). At day 5, cells were washed and re-stimulated with PMA+ionomycin and Golgi Stop™ (BD Biosciences) for 3.5 hours. For induction of human IL-22, tonsil lymphocytes were cultured in RF10 media at 1.5×10^6/ml in 24-well plates for 6 hours in the presence of 40 ng/ml IL-23 (eBiosciences) and 10 ng/ml IL-1β (R&D Systems). Golgi Stop™ (BD Biosciences) was added during the final 3 hours.\nJurkat cells were cultured at 10^5/100 μl in U-bottom wells for 24-48 hrs with either DMSO or the indicated concentrations of digoxin (Sigma-Aldrich). To test the effect of STAT5 in IL-7-induced BTLA expression, CD27^− gd T cells were enriched from lymph nodes of Rorc(t)^gfp/+ mice and cultured for two days in 24-well plates containing feeder adherent cells with no stimulus, or with IL-7 in the presence or absence of STAT inhibitor (EMD Millipore, Billerica, Mass.) at the indicated concentrations."}, "[3]": {"test_system": "γδT cells", "assay": "IL-17 and TNF production by lymph node γδT cells with or without IL-7", "type": "cell-based, mice", "conditions": "all γδT subsets, IL-7 10 ng/ml 18 hours then PMA/ionomycin; FIG. 5", "procedure": "as §1\nas §2, with “For induction of human IL-22, tonsil lymphocytes were cultured in RF10 media at 1.5×10^6/ml in 24-well plates for 6 hours in the presence of 40 ng/ml IL-23 (eBiosciences) and 10 ng/ml IL-1β (R&D Systems). Golgi Stop™ (BD Biosciences) was added during the final 3 hours.” left out"}, "[4]": {"test_system": "γδT cells", "assay": "IL-7 induced expansion of iLN lymphocytes cultured ex vivo", "type": "cell-based, mice", "conditions": "IL-7 10 ng/ml, four days, vs untreated cultures; FIG. 4A", "procedure": "as §2"}, "[5]": {"conditions": "iLN γδT cells and PP ILCs from Rorc(t)gfp/+ mice, IL-7 10 ng/ml, two days, vs untreated, FIG. 4G-K"}}, "data": [{"molecule": "C[C@H]1O[C@@H](O[C@H]2[C@@H](O)C[C@H](O[C@H]3[C@@H](O)C[C@H](O[C@H]4CC[C@@]5(C)[C@H](CC[C@@H]6[C@@H]5C[C@@H](O)[C@]5(C)[C@@H](C7=CC(=O)OC7)CC[C@]65O)C4)O[C@@H]3C)O[C@@H]2C)C[C@H](O)[C@@H]1O", "note": "[digoxin]", "values": [{"measurement": "BTLA expression at the mRNA level", "setting": "[1]", "value": "induced expression of BTLA"}, {"measurement": "BTLA expression at the protein level (surface expression)", "setting": "[1]", "value": "induced expression of BTLA"}]}, {"molecule": "IL-1β: cytokine, potent γδT cell activator", "values": [{"measurement": "BTLA induction in RORγt+ γδT cells after culture with activating cytokines", "setting": "[2]", "value": "either no or only a minimal effect"}]}, {"molecule": "B1", "values": [{"measurement": "frequency of IL-17 expressing γδT cells", "setting": "[3]", "value": "enhanced"}, {"measurement": "frequency of TNF expressing γδT cells", "setting": "[3]", "value": "enhanced"}, {"measurement": "number of BTLA+ cells", "setting": "[2]; [5]", "value": "induced a higher number"}, {"measurement": "surface BTLA expression", "setting": "[2]; [5]", "value": "increased"}, {"measurement": "viability of γδT cells within lymph node lymphocytes cultured ex vivo", "setting": "[4]", "value": "sustained viability"}]}, {"molecule": "B2", "values": [{"measurement": "BTLA induction in RORγt+ γδT cells after culture with activating cytokines", "setting": "[2]", "value": "either no or only a minimal effect"}]}]}
